Test results as given in a protein production outcome set (Wang et al. 2014).

test: label from the status in PepcDB records

Sequence	protein production
MNSIKTPLLFLLIAFSSIFQSFSAGKPLGYEIKATIKGVKQADTVYLARYYADKRFYQDTAIADAKGFVSFSDTTHLKEGMYFLLLPGQKVFDFILNPSTLSFSIDTTNLIKSAHFKNSPDNTAFYDYQRFFMNQKTKADSINNLMKSAAATQKTVLTKQLSDIDSTMLAYIQNFLKTNPNSLFTAILKTTKDVDVPPAPKKADGSIDSSWQFHYYKKHYFDNVNFSDDRLIRTPVLVNKVDGYFKNLVVQRPDSIIKEIDMIISKCNPKGDLFEYYVREYTYKYETSQVMGMDAVFVHLGKEYYMKGKCFWATPETVKKIKERVDLLDPLLLGKKAPNLYMTDTTGTYRYLYDVQAKYTILFFWDSQCGHCQQETPKLYDWWLKNRAKGIQVYAANIERKDEEWLKFIRSKKIGGWLNVRDSKNHTDFKITYDIYATPVLYVLDKNKVIIAKRIGYENLDDFLVQYEKSLKTK	failed
MNSIQIADETYVAADAARVSAAVADRCSWRRWWPDLRLQVTEDRADKGIRWTVTGALTGTMEIWLEPSMDGVLLHYFLHAEPTGVAAWQLARMNLARMTHHRRVAGKKMAFEVKTVLERSRPIGVSPVT	failed
MNSLINIFNQYSELAIFISLFISVIIALLGIVPSVFVTGANIVFFGPINGFLISLLGEVIGGWISFKVYRKGINKFAGNIEGKYELIDKIVKSEGRNVGILIFEGRLIPFIPSGLVTLAAAMSKVNSFTFIISTFLGKIPSILLEVLASYGVIMASQKNLKLVIGVLSLILFLLTLKKLKDKTNKK	failed
MNSLLFVYGTLRKHEKNHHLLAQSACINEQARTKGSLFAAKEGPTVVFNDEDEGYIYGEVYEADELCIHKLDQFFQGYHKQTVFVETDVGIKIALIYFMNKDGCAGFTKISSGDWKEHQMISKSKNPIYYFAYGSCMDNARFQKAGVDHYFQDPVGRAVLKGYTTRFTLKREDGSRADMLEDGGTTEGVLYRIPYSALSYLYKREGVESLTYRPAFVDVEAGGRHYKDCLTFLVLQKEAEIAPPQHYQIEIERGAELYLSPEFTEKLKRHMNSLPKGLEHHHHHH	not failed
MNSLPRPDIGPFADTPEKRWVGVSFGAAAVGYDGVAALQREVGESLLAGIRHLGPPPARMLDLGAGTGHFSGLLVAAFPTAECLALDIAEGMLRFLRSHRPGADGMGLVVGDAEALPLADESVDLIFSNMAFQWCERLDRAISECCRVLRPGGRLAFSTFGEATLAELRMAWRAVDGYTHVNAFATRRSVEQELRAQGFTKIRLDARTLRRGYPSVLALMKELKALGARNLTRNRPRHLLSRHTLERVSEAYGRLPGMASAVTASFEVLTALVEK	failed
MNSLSVIKPNNAMPMTAEYRQSIRTALKTSLYPGASDTSVDMVLAYCQAADLDPMTKPVHIVPMWIPEKKVDGRVMSSAGMRDVIMPGIELYRTKAHRTGEYAGQDEAVFGDTVCETLGGVQIRYPSWCRIAVYRMVAGERVRFAATVYWLEAYATARKDSPAPNSMWQKRPFGQLEKCAEALALRKAFPEAVGAQPTAEEMDAGRHTIEGETIHVAPIPVNKDIRDISGPYPQEEFEKNFPKWCDLIESGKTTADRIITMLHSKGKGQLSLEQLTAIRACAEDTSAEPVPTDNTPQESNTTDTEENT	not failed
MNSNIYAVIVTYNPELKNLNALITELKEQNCYVVVVDNRTNFTLKDKLADIEKVHLICLGRNEGIAKAQNIGIRYSLEKGAEKIIFFDQDSRIRNEFIKKLSCYMDNENAKIAGPVFIDRDKSHYYPICNIKKNGLREKIHVTEGQTPFKSSVTISSGTMVSKEVFEIVGMMDEELFIDYVDTEWCLRCLNYGILVHIIPDIEMVHAIGDKSVKICGINIPIHSPVRRYYRVRNAFLLLRKNHVPLLLSIREVVFSLIHTTLIIATQKNKIEYMKKHILATLDGIRGITGGGRYNA	failed
MNSNPFVSVVMSVYNGGEFLKDAINSILSQSYKNFEFIIINDGSSDNFSEILELYDDERIKVLNNQENKGLVYSLNRGLLESIGKYIVRMDADDISLPNRIEKQVEFMEREPEVGVCGSYIEIFGDTIKRKVQRFPSNVNVNEAFLLFSTCLAHPSVIIRKSIVDKYKLRYDDRYLHAEDYAIWCQAVKYTKISNIREVLLKYRILESSVTRQANKNFQSRFDVHKSIYKDIFRNKGIDYTEKELYLHFIISDNNRFRNQALTIRPSEINAHLTKILSHYRGASNYKYIAFLVNKRGLSLSRWYSESRGFYFIMYLFKFLYYKIQIKKLEHHHHHH	failed
MNSRMKIKKAYEYMKSFHQHDTTGHDIAHVERVYNNACYIAKRENITDTLVIELSSLLHDTVDSKLTDEILAYDQLKQFLSTLDLSSEISQQVLYIIKHMSYRAGKNNHVKLSIDGEIVRDADRLDAIGAIGIARTFQFSGHFGEPMWTETKLSNEELHTSLVEELDNSAIKHFYEKLFKLKDLMHTPTAKKLAEERHQFMIQYLKQFMSEWNFNKELEHHHHHH	not failed
MNSTLFSQVENHSVHSNFSEKNAQLLAFENDDCHLPLAMIFTLALAYGAVIILGVSGNLALIIIILKQKEMRNVTNILIVNLSFSDLLVAIMCLPFTFVYTLMDHWVFGEAMCKLNPFVQCVSITVSIFSLVLIAVERHQLIINPRGWRPNNRHAYVGIAVIWVLAVASSLPFLIYQVMTDEPFQNVTLDAYKDKYVCFDQFPSDSHRLSYTTLLLVLQYFGPLCFIFICYFKIYIRLKRRNNMMDKMRDNKYRSSETKRINIMLLSIVVAFAVCWLPLTIFNTVFDWNHQIIATCNHNLLFLLCHLTAMISTCVNPIFYGFLNKNFQRDLQFFFNFCDFRSRDDDYETIAMSTMHTDVSKTSLKQASPVAFKKINNNDDNEKI	failed
MNSYDFITALVPIILIIIGLGIIKKPAYYVIPISLIATVAIVIFYKNLGIVNTSLAMLEGALMGIWPIATVIIAAIFTYKMSEDQKDIETIKNILSNVSSDRRIIVLLVAWGFGNFLEGVAGYGTAVAIPVSILIAMGFEPFFACLICLIMNTSSTAYGSVGIPITSLAQATNLDVNIVSSEIAFQLILPTLTIPFVLVILTGGGIKGLKGVFLLTLLSGMSMAISQVFISKTLGPELPAILGSILSMTITIVYARFFGNKETTERQSKNTISLSKGIIACSPYILIVTFIVLVSPLFNKIHEYLKTFQSTISIYPEANPLHFKWIISPGFLIILATTISYSIRGVPMLKQLKIFTLTLKKMALSSFIIICIVAISRLMTHSGMIRDLANGISIITGKFGPLFSPLIGAIGTFLTGSDTVSNVLFGPLQTQMAENIGANPYWLAAANTTGATGGKMISPQNITIATTTAGLIGQEGKLLSKTIIYALYYILATGLLVYLV	failed
MNTDLTLVIMAAGLGSRFGGDKQLASLGPSGEPMLVLSILSAIRSGFQRAVLVIRPELEAELTGILTQFLPANFEYHFCYQSLSDLPQDAKLADLSHRLKPWGTAHALWCARDWVKGPMAVINADDFYGDSAFASLAKGLTARPNDWMMVAYPIELTLSEHGGVNRGLCQVAQGQLRSVAEWLNIQAQDDGFVGEGPNGLAKLPLQSLVSMTCWGFSPSIFNVIKQQLTAFIEQQGQLPKSECYLPAVVQAAIEQGVPVYVDVASEPWLGVTYPQDTVWVKQKLMELLGDKTHLEHHHHHH	failed
MNTHLKQLIEISHLDKEIDSLEPLIREKRKDLDKALNDKEAKNKAILNLEEEKLALKLQVSKNEQTLQDTNTKIASIQKKMSEIKSERELRSLNIEEDIAKERSNQANREIENLQNEIKHKSEKQEDLKKEMLELEKLVQQLESLVENEVKNIKETQQIIFKKKEELVEKTEPKIYSFYERIRRWAKNTSIVTIKKQACGGCFIRLNDKIYTEVLTSGDMITCPYCGRILYAEG	failed
MNTHQNRYSVQSKVSALINCRLFQSFITTVIVLNAISIGLETYAFFKPYQKVFFIVDCLFLTIFVIELSLKLFVQKQHFFKNNWNVFDFVIVAGSLILYNTNFVSVLRIFRVLRVLRTITSVPSLRRIVNALFMAIPTISSVIILMSIIFYVYAVIGTMFFSAIAPEYFGNLQLSLLTLFQTFTLESWASGIFRPIFAESGWSWLYFVSFIVIATFIMINLIVGEIVNNAQKISQEIEDETGELKEDTKEIKELRAEVKELKALLQTYITQNEKKD	failed
MNTLIASLEKVILPFAVKIGKQPHVNAIKNGFIRLMPLTLTGAMFVLINNVFLSFGEGSFFYSLGVRLDASTIETLNSLKSIGGSVYNGTLGIMSLMTPFFISMALAEERKVDPLASALLAVAAFMTVTPFNVGEAYAVGANWLGGANIISGMVIGLAVAEMFAFIVRRNWVISLPDSVPASVSRSFSALIPGFIILSIMGLVAFALAHWGTNFHQIIMDGISAPLAKMGSVVGWVYVLFSSLLWFFGVHGSMALAALDSGIMTPFALENVELYNKYGSVEAAVAAGKEFHMWAKPFVDSYIYLGGTGSTLGLIIAIFIASRREDYRQVAKLATPSGIFQINEPILFGLPVIMNPVMFIPFILVQPVLTIITSLAYYSGLIPPITNIAPWTMPVGLGAFFNTNGSIMAMLLSLFNLAVATVIYLPFVAISNKAQSQIDAATESEEDIAKALKF	failed
MNTLYTLFATCPRGLETVLSQELGSLGCTDVQAFDGGVSCRGGLEQAYAANLHSRTAGRILLRLTKGTYRTERDIYKLAKNINWFNWFTLQQTFKVKIEAKRANVKSLQFAGLTVKDAVCDAFRDIYDARPSVDKAAPDVRIHAFLDERNVEIFIDTSGEALFKRGYRLDTGEAPLRENLAAGLLLSAGYDGTQPFQDPFCGSGTIAIEAAWIAAGRAPGMMRRFGFEKLQNFDKTLWADLRRRAEAQTRPVRAPIAGSDNGRRIVQTALDNAHNAGADDIVSFSVAGAQSVRPNGENGIMVSNPPYGVRLEEVRALQALYPQLGTWLKKHYAGWRVGMFTGDREMPKFMRLLPKRKIPLYNGNIDCRLFLIDMVQGSNR	not failed
MNTPLRRVAIAVMVMVVALLANATYVQVIKADNLRADPRNSRVLLDEYSRQRGQISAAGQVLAASVPTDDRYKYLRTYPPNPAAPSSPLANAPVTGFYSMQYGSTGLERSEDPVLNGSDNRLFGRRFFDLVSGRDPRGGNVVTTINPVMQQVAYDQLTAKGYTGSVVAIEPSTGRILTMVSTPSYDPNSLASHDGTETTQAWEALNADPEKPLINRAVSQTYPPGSTFKVVVTAAALAAGTTPDTQLTAAPQITLPGTSTTLENYNGSTCGGAPTASLREAFARSCNTAFVELGVKTGTDAVSDQSSALGIGGQMPGVPFPVADSTIGSIPDDAALGQSSIGQRDVALTPLQNAMIAATVANGGVRMQPQLVSELQGPDLSNLATTNPVSEGQAMSSQVAATLTDLMIGSENNTSGEGKIPGVQIASKTGTAEHGTDPRNTPPHAWYIGFAPAQNPTVAIAVIVEDGGDRALAATGGSVAAPIGRAVIAAGLQGG	failed
MNTTPFPALSAETLLAVNTVGQWLAQNDFSGEQPYSSDCVVLAGNAVIPTIDAACRIAKAQGVPLLISGGIGHSTPFLYAVIARHPRYHTIRTSGRAEAAILADIANQFWHIPAEKIWLEDRSTNCGENARFSCALIRQAKENINTAIVVQDPTMQRRTIAAFRRVTNDDTDAPRWLSFPGFVPVLRHLNDGTRFANVEEGIWTVERYLSLIAGELPRLRDDETGYGPRGKDFIIHVDIPRDIENAWQVLQADTTLRSALGQRALRLEHHHHHH	not failed
MNTTQGEYTTTAKWLHWLMATLIALAWLIGFYVSDLPKGPEKAAIMAWHKGLGTAVLALITVRLAWRLLHPPPRLPDTLSPGLQRAAHSAHWTLYGLMIAQPLSGWAVSSANGYPVKLFGLITLPALVEKNEVLAQTFVEIHEFLAWGLALLVVGHVVMAIKHHHVDRNGILHRMLPGRRPTSD	failed
MNTVDEDIKFKEVPGITNILLLSSDARPGEDVSRSDSIMILTIDNINKKLKVTSLMRDMLVKIDGHGEEKLNHAFAYGGPTKTIETIQNNFGIKLNNYVIVDFNAFVKVIDAINGIEVTVKDYELDELNKYILDGGGSEEDLLPSPGTYNLNGYQALSYARIRKVGNGEYERTERQRAVLQIALEKVKDMSTVKLVSLLNELFPYVKTNISLGNAMDYGFTALNVGKKCNFEIEQFRVPLDSISKGGIINNKGWVFVIDKVETSKALQEFIFNDNKNYEPDTSNFDSIIEQYFNDYDIKDDTTHPDYEYVPSINTNGNFEKPKNNSGNSSNNNSNNKVEKPSNQGNSVNSSNKPSNGSTSTGNNSTEKPNTSEKPSIPQETPTEKPLEHHHHHH	failed
